Data on two molecules can be found in publication PMC12167710.

The target in test [1] is recombinant human IgG1λ isotype control antibody (clone AbD00264_hIgG1) (human).
For test [2], the target named is recombinant mouse IgG1κ isotype control antibody (clone P3.6.2.8.1) (mouse).

B1: anti-human λ VHH (HuFab lambda 1) (VHH)
VHH: QVQLQDSGGGLVQPGGSLRLSCAASGFTLDYYAIGWFRQAPGKEREGVSCISSSDGSSDGYTYYADSVKGRFTISRDNAKNTVYLQMNNLKPEDTAVYYCAARLFGVATTDPSYFDSWGQGTQVTVSS
On to B1, for which the dissociation constant (Kd) (usually the constant that tells how readily two partners part at equilibrium) in test [1] was determined as 1350 pM.

B2: anti-mouse κ VHH (TP1170) (VHH)
VHH: QVQLVESGGGWVQPGGSLRLSCAASGFTFSDTAMMWVRQAPGKGREWVAAIDTGGGYTYYADSVKGRFTISRDNAKNTLYLQMNSLKPEDTARYYCAKTYSGNYYSNYTVANYGTTGRGTLVTVSS
Turning to B2, in test [2], the Kd amounted to 16.7 pM.
